Where two headings read alike, the source gives them in different places.
Experiments:
[1] = target: T1, human 4-1BB on cells (activated human T cells; HeLa-hu4-1BB-NFκB-luc clone 26; Jurkat-hu4-1BB-NFκB-luc2) (human, UniProt Q07011 24-255); experiment: cell-based or functional assay
[2] = target: T1, human 4-1BB on cells (activated human T …); experiment: flow cytometry on activated human CD8+ T cells, PE anti-human Fc secondary
[3] = target: T1, human 4-1BB on cells (activated human T …); experiment: cell-based or functional assay; remark: listed apart in the source
[4] = target: T2, hu4-1BB-SNAP fusion on Hek293 EBNA cells (human, UniProt Q07011 24-255, labeled with the FRET donor Terbium); experiment: TagLite FRET competition on hu4-1BB-SNAP cells; competitor 0.6 nM d2-labelled 20H4.9 IgG; 4 h
T2 construct: also called hu 4-1BB (TagLite); not shown: SNAP tag

[5] = target: T1, human 4-1BB on cells (activated human T …); experiment: flow cytometry on activated human CD4+ T cells, PE anti-human Fc secondary
[6] = target: T2, hu4-1BB-SNAP fusion on Hek293 EBNA cells; experiment: TagLite FRET competition on hu4-1BB-SNAP cells; competitor 0.6 nM d2-labelled 20H4.9 IgG; 4 h; remark: listed apart in the source
[7] = target: T3, human FAP on cells (WM-266-4; NIH/3T3-huFAP clone 19) (human, UniProt Q12884 1-760); experiment: flow cytometry on WM-266-4 and NIH/3T3-huFAP clone 19 cells
T3 construct: transfected in NIH/3T3-huFAP clone 19

[8] = target: T1, human 4-1BB on cells (activated human T …); experiment: cell-based or functional assay; remark: listed apart in the source

B1: 4-1BB (20H4.9) huIgG1 P329G LALA (antibody, V domains shown)
VH: QVQLQQWGAGLLKPSETLSLTCAVYGGSFSGYYWSWIRQSPEKGLEWIGEINHGGYVTYNPSLESRVTISVDTSKNQFSLKLSSVTAADTAVYYCARDYGPGNYDWYFDLWGRGTLVTVSS
VL: EIVLTQSPATLSLSPGERATLSCRASQSVSSYLAWYQQKPGQAPRLLIYDASNRATGIPARFSGSGSGTDFTLTISSLEPEDFAVYYCQQRSNWPPALTFGGGTKVEIK
notes: rest is human IgG1 with P329G, L234A, L235A; In the FRET assay the same IgG, labelled with d2, is the tracer; also called 20H4.9 IgG; anti-4-1BB (20H4.9) huIgG1 P329G LALA
With B1 the “EC50 of human PBMC activation curves, % CD25+ CD4 (with NIH/3T3-huFAP cells and anti-CD3)” value [1] was 0.1 nM, the EC50 [2] was 0.1 nM and the “EC50 of Jurkat-hu4-1BB-NFκB-luc2 reporter cell line activation curves in the presence of CEA-expressing MKN45 tumor cells” value [3] was 0.02 nM. For the same binder, the EC50 [4] was 1.5 nM, the “EC50 interval” value [4] was 0.9 to 2.4 nM and the EC50 [5] was 0.1 nM. For the same binder, the EC50 [6] was 1.5 nM, the “EC50 interval” value [6] was 0.9 to 2.5 nM and the binding result [7] was “no binding”. For the same binder, the “EC50 of activation of the NFκB signaling pathway (luciferase, HeLa-hu4-1BB-NFκB-luc), no FAP+ cells” value [8] was 1.07 nM, the “EC50 of activation of the NFκB signaling pathway (luciferase, HeLa-hu4-1BB-NFκB-luc), with 3T3-huFAP cells” value [8] was 2.17 nM and the “EC50 of activation of the NFκB signaling pathway (luciferase, HeLa-hu4-1BB-NFκB-luc), with WM-266-4 cells” value [8] was 0.64 nM.
